Data on 47 variants can be found in the Human Domainome abundance scans (Beltran et al. 2025).

± gives the uncertainty stated by the source.

The labels stand for the following.
B1: POU domain, class 3, transcription factor 3, residues 408 to 463; numbered along this chain, P20264 (parent)
chain: KKRTSIEVSVKGALESHFLKCPKPSAQEITNLADSLQLEKEVVRVWFCNRRQKEKR

This data set covers variants of B1. As to the kind of experiment: abundance fitness (aPCA) (normalised: wild type 0, dead -1); higher = more abundant; growth selection in yeast, the domain comes from the species named. The following applies: Homo sapiens.
KKRTSIEVSVKGALESHFLKCPKPSAQEITNLADSLQLEKEVVRVWFCHRRQKEKR [N49H]: the abundance fitness is -0.034 ± 0.15. The result for KKRTSIEVSVKGALESHFLKCPKPSAQEITNLADSLQLEKEVVRVWFCGRRQKEKR [N49G] reads -0.279 ± 0.07; that for KKRTSIEVSVKGALESHFLKCPKPSAQEITNLADSLQLEKEVVRVWFCWRRQKEKR [N49W], -0.295 ± 0.088. The result for KKRTSIEVSVKGALESHFLKCPKPSAQEITNLADSLQLEKEVVRVWFCDRRQKEKR [N49D] reads -0.177 ± 0.28; that for KKRTSIEVSVKGALESHFLKCPKPSAQEITNLADSLQLEKEVVRVWFCMRRQKEKR [N49M], -0.274 ± 0.11; that for KKRTSIEVSVKGALESHFLKCPKPSAQEITNLADSLQLEKEVVRVWFCTRRQKEKR [N49T], -0.097 ± 0.12. The result for KKRTSIEVSVKGALESHFLKCPKPSAQEITNLADSLQLEKEVVRVWFCCRRQKEKR [N49C] reads -0.202 ± 0.11; that for KKRTSIEVSVKGALESHFLKCPKPSAQEITNLADSLQLEKEVVRVWFCIRRQKEKR [N49I], -0.151 ± 0.14; that for KKRTSIEVSVKGALESHFLKCPKPSAQEITNLADSLQLEKEVVRVWFCQRRQKEKR [N49Q], 0.028 ± 0.13.

As for KKRTSIEVSVKGALESHFLKCPKPSAQEITNLADSLQLEKEVVRVWFCARRQKEKR [N49A], the abundance fitness is -0.142 ± 0.094. Turning to KKRTSIEVSVKGALESHFLKCPKPSAQEITNLADSLQLEKEVVRVWFCSRRQKEKR [N49S], the abundance fitness was -0.098 ± 0.079.

For KKRTSIEVSVKGALESHFLKCPKPSAQEITNLADSLQLEKEVVRVWFCERRQKEKR [N49E], the abundance fitness came to 0.041 ± 0.13.

Consider KKRTSIEVSVKGALESHFLKCPKPSAQEITNLADSLQLEKEVVRVWFCPRRQKEKR [N49P], for which the abundance fitness is -0.881 ± 0.2. To KKRTSIEVSVKGALESHFLKCPKPSAQEITNLADSLQLEKEVVRVWFCLRRQKEKR [N49L] belongs -0.357 ± 0.083; to KKRTSIEVSVKGALESHFLKCPKPSAQEITNLADSLQLEKEVVRVWFCNRFQKEKR [R51F], -0.385 ± 0.23. To KKRTSIEVSVKGALESHFLKCPKPSAQEITNLADSLQLEKEVVRVWFCNREQKEKR [R51E] belongs -0.126 ± 0.092; to KKRTSIEVSVKGALESHFLKCPKPSAQEITNLADSLQLEKEVVRVWFCNRGQKEKR [R51G], -0.156 ± 0.062.

For KKRTSIEVSVKGALESHFLKCPKPSAQEITNLADSLQLEKEVVRVWFCNRLQKEKR [R51L], the abundance fitness was -0.005 ± 0.079.

Regarding KKRTSIEVSVKGALESHFLKCPKPSAQEITNLADSLQLEKEVVRVWFCNRCQKEKR [R51C], the abundance fitness is -0.345 ± 0.12. KKRTSIEVSVKGALESHFLKCPKPSAQEITNLADSLQLEKEVVRVWFCNRVQKEKR [R51V]: the abundance fitness was -0.222 ± 0.09. To KKRTSIEVSVKGALESHFLKCPKPSAQEITNLADSLQLEKEVVRVWFCNRKQKEKR [R51K] belongs -0.534 ± 0.18; to KKRTSIEVSVKGALESHFLKCPKPSAQEITNLADSLQLEKEVVRVWFCNRMQKEKR [R51M], 0.031 ± 0.12.

For the variant KKRTSIEVSVKGALESHFLKCPKPSAQEITNLADSLQLEKEVVRVWFCNRIQKEKR [R51I], the abundance fitness is -0.207 ± 0.27.

For the variant KKRTSIEVSVKGALESHFLKCPKPSAQEITNLADSLQLEKEVVRVWFCNRYQKEKR [R51Y], the abundance fitness came out at 0.243 ± 0.48.

Consider KKRTSIEVSVKGALESHFLKCPKPSAQEITNLADSLQLEKEVVRVWFCNRAQKEKR [R51A], for which the abundance fitness was -0.105 ± 0.088.

As for KKRTSIEVSVKGALESHFLKCPKPSAQEITNLADSLQLEKEVVRVWFCNRNQKEKR [R51N], the abundance fitness was -0.175 ± 0.28.

For the variant KKRTSIEVSVKGALESHFLKCPKPSAQEITNLADSLQLEKEVVRVWFCNRPQKEKR [R51P], the abundance fitness was -0.608 ± 0.16. Consider KKRTSIEVSVKGALESHFLKCPKPSAQEITNLADSLQLEKEVVRVWFCNRWQKEKR [R51W], for which the abundance fitness amounted to 0.018 ± 0.081. The result for KKRTSIEVSVKGALESHFLKCPKPSAQEITNLADSLQLEKEVVRVWFCNRHQKEKR [R51H] reads -0.361 ± 0.24. The result for KKRTSIEVSVKGALESHFLKCPKPSAQEITNLADSLQLEKEVVRVWFCNRQQKEKR [R51Q] reads -0.164 ± 0.12; that for KKRTSIEVSVKGALESHFLKCPKPSAQEITNLADSLQLEKEVVRVWFCNRRIKEKR [Q52I], -0.186 ± 0.16; that for KKRTSIEVSVKGALESHFLKCPKPSAQEITNLADSLQLEKEVVRVWFCNRRAKEKR [Q52A], 0.041 ± 0.081. The result for KKRTSIEVSVKGALESHFLKCPKPSAQEITNLADSLQLEKEVVRVWFCNRRCKEKR [Q52C] reads -0.126 ± 0.11; that for KKRTSIEVSVKGALESHFLKCPKPSAQEITNLADSLQLEKEVVRVWFCNRRGKEKR [Q52G], -0.146 ± 0.074; that for KKRTSIEVSVKGALESHFLKCPKPSAQEITNLADSLQLEKEVVRVWFCNRRLKEKR [Q52L], -0.131 ± 0.078. For the variant KKRTSIEVSVKGALESHFLKCPKPSAQEITNLADSLQLEKEVVRVWFCNRRFKEKR [Q52F], the abundance fitness is -0.205 ± 0.14. As to KKRTSIEVSVKGALESHFLKCPKPSAQEITNLADSLQLEKEVVRVWFCNRREKEKR [Q52E], the abundance fitness was 0.057 ± 0.14.

For KKRTSIEVSVKGALESHFLKCPKPSAQEITNLADSLQLEKEVVRVWFCNRRNKEKR [Q52N], the abundance fitness was -0.17 ± 0.14. The result for KKRTSIEVSVKGALESHFLKCPKPSAQEITNLADSLQLEKEVVRVWFCNRRHKEKR [Q52H] reads -0.113 ± 0.15. Take KKRTSIEVSVKGALESHFLKCPKPSAQEITNLADSLQLEKEVVRVWFCNRRKKEKR [Q52K]: the abundance fitness is -0.112 ± 0.14.

As for KKRTSIEVSVKGALESHFLKCPKPSAQEITNLADSLQLEKEVVRVWFCNRRDKEKR [Q52D], the abundance fitness is 0.034 ± 0.12.

Regarding KKRTSIEVSVKGALESHFLKCPKPSAQEITNLADSLQLEKEVVRVWFCNRRMKEKR [Q52M], the abundance fitness is -0.194 ± 0.15. To KKRTSIEVSVKGALESHFLKCPKPSAQEITNLADSLQLEKEVVRVWDCNRRQKEKR [F47D] belongs -0.295 ± 0.4; to KKRTSIEVSVKGALESHFLKCPKPSAQEITNLADSLQLEKEVVRVWRCNRRQKEKR [F47R], -1.07 ± 0.29.

Turning to KKRTSIEVSVKGALESHFLKCPKPSAQEITNLADSLQLEKEVVRVWLCNRRQKEKR [F47L], the abundance fitness was -0.461 ± 0.28.

In the case of KKRTSIEVSVKGALESHFLKCPKPSAQEITNLADSLQLEKEVVRVWSCNRRQKEKR [F47S], the abundance fitness was -0.442 ± 0.34. To KKRTSIEVSVKGALESHFLKCPKPSAQEITNLADSLQLEKEVVRVWMCNRRQKEKR [F47M] belongs -0.144 ± 0.34.
